# Data published in paper PMC5536962 (Cell reports, 2015).
# T1: GST-Mcm10 (yeast, UniProt P32354 1-571)
# T1 sequence (looked up): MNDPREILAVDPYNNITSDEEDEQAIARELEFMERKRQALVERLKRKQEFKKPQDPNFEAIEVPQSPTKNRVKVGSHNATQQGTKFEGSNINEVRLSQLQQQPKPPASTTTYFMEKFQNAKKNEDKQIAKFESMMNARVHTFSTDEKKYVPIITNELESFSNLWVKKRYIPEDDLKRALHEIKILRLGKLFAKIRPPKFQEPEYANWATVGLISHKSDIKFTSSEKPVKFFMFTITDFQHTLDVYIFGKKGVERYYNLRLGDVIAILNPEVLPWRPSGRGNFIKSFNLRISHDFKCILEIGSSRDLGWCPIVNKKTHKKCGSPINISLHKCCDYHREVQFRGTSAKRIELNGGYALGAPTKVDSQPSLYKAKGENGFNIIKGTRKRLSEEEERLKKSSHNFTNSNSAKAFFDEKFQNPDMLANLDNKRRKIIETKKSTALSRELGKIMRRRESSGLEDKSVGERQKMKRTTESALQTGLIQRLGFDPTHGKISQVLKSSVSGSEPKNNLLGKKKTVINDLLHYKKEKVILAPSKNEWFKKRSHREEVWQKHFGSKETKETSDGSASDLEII
# T2: Mcm10 (GST tag removed) (yeast, UniProt P32354 1-571)
# T2 sequence (looked up): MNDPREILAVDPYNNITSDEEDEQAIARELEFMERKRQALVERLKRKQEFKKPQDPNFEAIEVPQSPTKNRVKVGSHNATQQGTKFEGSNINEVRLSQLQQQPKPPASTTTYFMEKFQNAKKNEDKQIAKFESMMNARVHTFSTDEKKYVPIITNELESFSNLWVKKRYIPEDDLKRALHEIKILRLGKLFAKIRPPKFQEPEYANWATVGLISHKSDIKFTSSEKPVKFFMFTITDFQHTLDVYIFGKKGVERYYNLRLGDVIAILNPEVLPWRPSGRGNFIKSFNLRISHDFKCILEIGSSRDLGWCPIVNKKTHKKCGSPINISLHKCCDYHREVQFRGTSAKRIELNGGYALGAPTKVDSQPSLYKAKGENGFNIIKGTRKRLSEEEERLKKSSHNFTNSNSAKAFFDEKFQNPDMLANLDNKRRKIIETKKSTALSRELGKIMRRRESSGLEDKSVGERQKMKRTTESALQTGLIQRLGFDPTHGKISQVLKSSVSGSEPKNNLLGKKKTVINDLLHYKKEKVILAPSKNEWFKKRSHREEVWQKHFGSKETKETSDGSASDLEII
# B1: GST-Mcm4 (1-471) (domain or fragment, yeast, UniProt P30665 1-471, looked up)
# chain: MSQQSSSPTKEDNNSSSPVVPNPDSVPPQLSSPALFYSSSSSQGDIYGRNNSQNLSQGEGNIRAAIGSSPLNFPSSSQRQNSDVFQSQGRQGRIRSSASASGRSRYHSDLRSDRALPTSSSSLGRNGQNRVHMRRNDIHTSDLSSPRRIVDFDTRSGVNTLDTSSSSAPPSEASEPLRIIWGTNVSIQECTTNFRNFLMSFKYKFRKILDEREEFINNTTDEELYYIKQLNEMRELGTSNLNLDARNLLAYKQTEDLYHQLLNYPQEVISIMDQTIKDCMVSLIVDNNLDYDLDEIETKFYKVRPYNVGSCKGMRELNPNDIDKLINLKGLVLRSTPVIPDMKVAFFKCNVCDHTMAVEIDRGVIQEPARCERIDCNEPNSMSLIHNRCSFADKQVIKLQETPDFVPDGQTPHSISLCVYDELVDSCRAGDRIEVTGTFRSIPIRANSRQRVLKSLYKTYVDVVHVKKVSD
# B2: GST-Mcm6 (1-439) (domain or fragment, yeast, UniProt P53091 1-439, looked up)
# chain: MSSPFPADTPSSNRPSNSSPPPSSIGAGFGSSSGLDSQIGSRLHFPSSSQPHVSNSQTGPFVNDSTQFSSQRLQTDGSATNDMEGNEPARSFKSRALNHVKKVDDVTGEKVREAFEQFLEDFSVQSTDTGEVEKVYRAQIEFMKIYDLNTIYIDYQHLSMRENGALAMAISEQYYRFLPFLQKGLRRVVRKYAPELLNTSDSLKRSEGDEGQADEDEQQDDDMNGSSLPRDSGSSAAPGNGTSAMATRSITTSTSPEQTERVFQISFFNLPTVHRIRDIRSEKIGSLLSISGTVTRTSEVRPELYKASFTCDMCRAIVDNVEQSFKYTEPTFCPNPSCENRAFWTLNVTRSRFLDWQKVRIQENANEIPTGSMPRTLDVILRGDSVERAKPGDRCKFTGVEIVVPDVTQLGLPGVKPSSTLDTRGISKTTEGLNSGVTG
# Columns and labels:
# Assay in all cases: pull-down
# GST-Mcm10 = biological target: T1, GST-Mcm10
# GST-Mcm4 (1-471) = biological target: B1
# GST-Mcm6 (1-439) = biological target: B2
# Mcm10 (GST tag removed) = biological target: T2, Mcm10 (GST tag removed)
binding result (GST-Mcm10),binding result (GST-Mcm4 (1-471)),binding result (GST-Mcm6 (1-439)),binding result (Mcm10 (GST tag removed)),Binder
binds,binds,binds,,"6His-Mcm2 (1-299) (domain or fragment, yeast, UniProt P29469 1-299, looked up) MSDNRRRRREEDDSDSENELPPSSPQQHFRGGMNPVSSPIGSPDMINPEGDDNEVDDVPDIDEVEEQMNEVDLMDDNMYEDYAADHNRDRYDPDQVDDREQQELSLSERRRIDAQLNERDRLLRNVAYIDDEDEEQEGAAQLDEMGLPVQRRRRRRQYEDLENSDDDLLSDMDIDPLREELTLESLSNVKANSYSEWITQPNVSRTIARELKSFLLEYTDETGRSVYGARIRTLGEMNSESLEVNYRHLAESKAILALFLAKCPEEMLKIFDLVAMEATELHYPDYARIHSEIHVRISD"
,,,binds,B1
,,,binds,B2
